Data reported in the DeepSol protein solubility set.

Test: soluble on expression in E. coli; label from the status in PepcDB or PDB records

Q: Which “soluble on expression in E. coli” value does the source give for “SNAMSSEELEQVWSNIKSEARALAECEPMLASFFHATLLKHENLGSALSYILANKLANPIMPAIAIREVVEEAYRSDAHMIVSAARDILAVRLRDPAVDKYSTPLLYLKGFHALQAYRIGHWLWAQDRKALAIYLQNQVSVAFGVDIHPAATIGCGIMLDHATGIVIGETAVVENDVSILQSVTLGGTGKTSGDRHPKIREGVMIGAGAKILGNIEVGRGAKIGAGSVVLQSVPAHTTAAGVPARIVGKPESDKPSLDMDQHFNGSIQGFEYGDGI” here?
A: soluble

Q: Which “soluble on expression in E. coli” value does the source give for “MASMTGGQQMGRIPGNSPRMVLLESEQFLTELTRLFQKCRSSGSVFITLKKYDGRTKPIPRKSSVEGLEPAENKCLLRATDGKRKISTVVSSKEVNKFQMAYSNLLRANMDGLKKRDKKNKSKKSKPAQGGEQKLISEEDDSAGSPMPQFQTWEEFSRAAEKLYLADPMKVRVVLKYRHVDGNLCIKVTDDLVCLVYRTDQAQDVKKIEKFHSQLMRLMVAKESRNVTMETE” here?
A: soluble

Q: Which “soluble on expression in E. coli” value does the source give for “EVQLVESGGGLVKPGGSLKLSCAASGFAFSSYDMSWVRQTPEKRLEWVAYISSGGGSTYYPDTVKGRFTISRDNAKNTLYLQMSSLKSEDTAMYYCARPDYRSYAMDYWGQGTSVTVSSAKTTAPSVYPLAPVCGDTTGSSVTLGCLVKGYFPEPVTLTWNSGSLSSGVHTFPAVLQSDLYTLSSSVTVTSSTWPSQSITCNVAHPASSTKVDKKIEPRGP” here?
A: soluble

Q: For “MLDKLDRLEEEYRELEALLSDPEVLKDKGRYQSLSRRYAEMGEVIGLIREYRKVLEDLEQAESLLDDPELKEMAKAEREALLARKEALEKELERHLLPKDPMDERDAIVEIRAGTGGEEAALFARDLFNMYLRFAEEMGFETEVLDSHPTDLGGFSKVVFEVRGPGAYGTFKYESGVHRVQRVPVTETQGRIHTSTATVAVLPKAEEEDFALNMDEIRIDVMRASGPGGQGVNTTDSAVRVVHLPTGIMVTCQDSRSQIKNREKALMILRSRLLEMKRAEEAERLRKTRLAQIGTGERSEKIRTYNFPQSRVTDHRIGFTTHDLEGVLSGHLTPILEALKRADQERQLAALAEG”, which “soluble on expression in E. coli” value is on record?
A: soluble

Q: For “MSLKGQNQHSVLRNFPVLGRIRYISEKIGPELRQYFFANDNEGKPFSRSDYKNIVLAGKYKSRMTSFGTGKDYLEGFYIQNTMFPLQATELHIDHTEFISTFLYHIENERLFSREEYRKSAQVDPFFLTDEHAVVLGSNLKHPFKIKRLVGQSGMSYGALGKNAITALSMGLAKAGTWMNTGEGGLSEYHLKGNGDIIYQIGPGLFGVRDHDGNFNRDMFINLAEHNNVRAFEIKLAQGAKTRGGHMEGNKVTEEIARIRNVKPYETINSPNRFDFIKNPTDLLNFVNHLQSIGQKPVGFKIVVSKVEEIEALVKTMIEIDTYPSFITVDGGEGGTGATFQELEDGVGLPLFTALPIVSSMLEKYGIRNKVKIFASGKLVTPDKIAIALGLGADLVNIARGMMISVGCIMSQQCHLNTCPVGVATTDPKKEKGLIVDEKQYRVTNYVTSLHEGLFNIAAAVGVHSPTEITSDHIIYRQLDGTTTSIQDYKLKLISEGHHHHHH”, which “soluble on expression in E. coli” value is on record?
A: not soluble

Q: For “MGSDKIHHHHHHMLVLNNLQKKFTNSKMVLNNVNAKFRSGSINCIVGVNGAGKTTLLNIISSILMPTKGDVYLNSESIFENSTLKKEIFYTPVNPFFYENLSAKDNLYLICSLYNRKIDQITIEKTIKDVGLNIEDLNIPVYNFSSGMKQKLNFASMLLVDSNVLLLDEPFNALDHVAQKNFTRILKGLVSKEKIIIFTSHLPNTILELSENIYLLKDGCFTDKRKAQSFNQTTLETWLLESQKEVIPYEEK”, which “soluble on expression in E. coli” value is on record?
A: not soluble

Q: Which “soluble on expression in E. coli” value does the source give for “MSLKTVVVIGGGITGLSTMFYLEKLKKDYNIDLNLILIEKEEYLGGKIHSVEEKDFIMESGADSIVARNEHVMPLVKDLNLEDEMVYNETGISYIYSENMLHPIPSDTIFGIPMSVQSLFSSTLVSTKGKIVALKDFITKNKEFTKDTSLALFLESFLGKELVERQIAPVLSGVYSGKLNELTMASTLPYLLDYKNKYGSIIKGFEENKKQFQSAGNKKFVSFKGGLSTIINRLEEVLTETVVKKGVITTAVSKQEDRYEISFANHETIQADYVVLAAPHDIAQTLLQSNELNEQFNTFKNSSLISIYLGFDILDEQLPADGTGFIVTENSDLHCDACTWTSRKWKHTSGKQKLLVRMFYKSTNPVYETIKNYSEEELVRVALYDIEKSLGIKGEPEVVEVTNWKDLMPKYHLEHNQAVQALQEKMTNLYPNVYLAGASYYGVGIGACIGNGKNIANEIMDTLNKEGHHHHHH” here?
A: soluble
